The assay concerns the target TRAP1 from zebrafish (D. rerio), full-length mature protein (D. rerio). The assay is described as follows: crystal structure.

What is called stoichiometry N is a count of units in the complex or per binding partner. Consider “TRAP1 from zebrafish (D. rerio), full-length mature protein (natural protein)”, for which the stoichiometry N stood at 2.

The values above are taken from paper PMC3947485.
